± gives the uncertainty stated by the source.

Sequences and labels used below:
B1: F-BAR and double SH3 domains protein 1, residues 467 to 528; numbered along this chain, Q86WN1 (parent)
chain: RALPCPAHVVFRYQAGREDELTITEGEWLEVIEEGDADEWVKARNQHGEVGFVPERYLNFPD

This data set covers variants of B1. In words: abundance fitness (aPCA) (normalised: wild type 0, dead -1); higher = more abundant; growth selection in yeast, the domain comes from the species named. The settings on record: Homo sapiens.
With C5F, the abundance fitness was -0.294 ± 0.12. On to C5I, for which the abundance fitness was -0.419 ± 0.1. For C5Y, the abundance fitness is -0.215 ± 0.077. Take C5R: the abundance fitness was -0.431 ± 0.062. For the variant C5A, the abundance fitness is -0.479 ± 0.24. Turning to C5L, the abundance fitness is -0.538 ± 0.067. Take C5Q: the abundance fitness was -0.171 ± 0.09.

In the case of C5G, the abundance fitness was -0.386 ± 0.094.

Consider C5H, for which the abundance fitness is -0.145 ± 0.42. On to C5P, for which the abundance fitness was -0.857 ± 0.15. As to C5M, the abundance fitness was -0.595 ± 0.1. P6L: the abundance fitness was -0.321 ± 0.048. Under P6W stands -0.29 ± 0.062. With P6N, the abundance fitness was -0.617 ± 0.15.

Consider P6C, for which the abundance fitness is -0.12 ± 0.071. Consider P6R, for which the abundance fitness was -0.077 ± 0.046. Regarding P6A, the abundance fitness was -0.094 ± 0.062.

Consider P6K, for which the abundance fitness was -0.219 ± 0.075. Consider P6T, for which the abundance fitness was -0.219 ± 0.097. P6E: the abundance fitness is -0.294 ± 0.074. Regarding P6V, the abundance fitness is -0.243 ± 0.049. On to P6H, for which the abundance fitness is -0.038 ± 0.14. As to P6S, the abundance fitness was -0.344 ± 0.071. Under P6Q stands -0.222 ± 0.072; under P6G, -0.209 ± 0.052.

Regarding P6M, the abundance fitness is -0.357 ± 0.12. Consider P6F, for which the abundance fitness was -0.285 ± 0.085. Under P6Y stands -0.258 ± 0.12; under P6D, -0.432 ± 0.14. Consider E18C, for which the abundance fitness was -0.076 ± 0.086. Under E18D stands 0.082 ± 0.1; under E18F, -0.28 ± 0.12; under E18A, -0.228 ± 0.073. Under H8M stands -0.245 ± 0.084; under H8W, -0.041 ± 0.12.

Consider H8F, for which the abundance fitness is -0.591 ± 0.12. Under H8P stands -0.905 ± 0.14; under H8K, -0.257 ± 0.072; under H8Q, -0.168 ± 0.077. Regarding H8T, the abundance fitness was -0.213 ± 0.067. With H8C, the abundance fitness was -0.28 ± 0.11. For the variant H8G, the abundance fitness is -0.651 ± 0.088. Under H8S stands -0.479 ± 0.07. Under H8L stands -0.202 ± 0.044; under H8V, -0.349 ± 0.068; under H8N, -0.392 ± 0.11. Regarding H8A, the abundance fitness was -0.497 ± 0.073. With H8D, the abundance fitness is -0.282 ± 0.11. Under L3Q stands -0.362 ± 0.17. For the variant L3T, the abundance fitness is -0.201 ± 0.072. As for L3S, the abundance fitness is -0.193 ± 0.057.

On to L3N, for which the abundance fitness was -0.127 ± 0.082. As for L3A, the abundance fitness is -0.693 ± 0.24.

For the variant L3C, the abundance fitness was -0.121 ± 0.063.

Turning to L3W, the abundance fitness is -0.53 ± 0.065. For L3Y, the abundance fitness was determined as 0.124 ± 0.075. Under L3H stands -0.206 ± 0.091; under L3I, -0.058 ± 0.093. Under L3D stands -0.486 ± 0.092; under L3E, -0.503 ± 0.12. Under L3P stands -0.242 ± 0.093; under L3V, -0.439 ± 0.062; under L3K, -0.276 ± 0.1.

L3R: the abundance fitness was -0.333 ± 0.044.

For L3M, the abundance fitness is -0.121 ± 0.085. Turning to L3F, the abundance fitness was found to be 0.05 ± 0.061. With L3G, the abundance fitness is -0.609 ± 0.058.

On to R12T, for which the abundance fitness was 0.023 ± 0.097. Consider R12W, for which the abundance fitness is -0.455 ± 0.096. On to R12N, for which the abundance fitness worked out at 0.033 ± 0.078. As to R12H, the abundance fitness was -0.188 ± 0.12. For the variant R12A, the abundance fitness was 0.056 ± 0.055. With R12Q, the abundance fitness was -0.078 ± 0.075. Take R12L: the abundance fitness was -0.265 ± 0.046. Under R12I stands -0.792 ± 0.17; under R12E, 0.17 ± 0.12. Under R12F stands -0.01 ± 0.07; under R12V, -0.367 ± 0.061. R12D: the abundance fitness is -0.024 ± 0.097. Turning to R12S, the abundance fitness was found to be 0.133 ± 0.048. Consider R12P, for which the abundance fitness is -0.102 ± 0.072.

For R12G, the abundance fitness is 0.085 ± 0.043. With R12C, the abundance fitness was -0.056 ± 0.077.

Take R17V: the abundance fitness was -0.253 ± 0.06. Take R17N: the abundance fitness is 0.099 ± 0.13. On to R17C, for which the abundance fitness was 0.064 ± 0.067. Under R17E stands -0.02 ± 0.083; under R17T, -0.164 ± 0.079. Consider R17P, for which the abundance fitness is -0.797 ± 0.27. On to R17S, for which the abundance fitness is -0.016 ± 0.06. On to R17L, for which the abundance fitness was -0.375 ± 0.053. Turning to R17D, the abundance fitness is -0.173 ± 0.078.

Turning to R17I, the abundance fitness is -0.557 ± 0.14. On to R17K, for which the abundance fitness was found to be 0.021 ± 0.077. Take R17F: the abundance fitness is -0.214 ± 0.083.

As for R17G, the abundance fitness was -0.09 ± 0.052. Under R17A stands -0.032 ± 0.068; under R17M, -0.091 ± 0.074. As for R17W, the abundance fitness is -0.346 ± 0.071. For R17H, the abundance fitness is 0.043 ± 0.11. With R17Q, the abundance fitness was -0.117 ± 0.088.

G16S: the abundance fitness was 0.019 ± 0.055. On to G16H, for which the abundance fitness is -0.027 ± 0.091. Regarding G16A, the abundance fitness worked out at 0.024 ± 0.066. Under G16D stands -0.233 ± 0.12; under G16Y, 0.497 ± 0.18; under G16F, -0.136 ± 0.083. For the variant G16C, the abundance fitness was 0.035 ± 0.087.

With G16K, the abundance fitness was determined as 0.077 ± 0.074. For G16P, the abundance fitness is -0.608 ± 0.2.

In the case of G16Q, the abundance fitness was 0.019 ± 0.083.

As to G16E, the abundance fitness was 0.165 ± 0.12.

As to G16T, the abundance fitness was -0.012 ± 0.1.

Consider G16M, for which the abundance fitness stood at 0.026 ± 0.071.

For the variant G16W, the abundance fitness is -0.245 ± 0.067. Consider G16N, for which the abundance fitness stood at 0.113 ± 0.13. With G16I, the abundance fitness is -0.118 ± 0.093. G16R: the abundance fitness is -0.064 ± 0.053. Consider P4C, for which the abundance fitness is -0.346 ± 0.15.

For P4W, the abundance fitness was -0.664 ± 0.11. Under P4I stands -0.381 ± 0.11. For the variant P4M, the abundance fitness was -0.247 ± 0.11. Under P4E stands -0.285 ± 0.12. As for P4L, the abundance fitness was -0.567 ± 0.076. For the variant P4G, the abundance fitness is -0.333 ± 0.068. P4R: the abundance fitness is -0.505 ± 0.076. For P4K, the abundance fitness is -0.359 ± 0.15. Take P4H: the abundance fitness was -0.472 ± 0.13. Regarding P4Y, the abundance fitness was -0.477 ± 0.15. In the case of P4F, the abundance fitness was -0.451 ± 0.087.

Regarding P4T, the abundance fitness was -0.136 ± 0.093. For the variant P4N, the abundance fitness is -0.194 ± 0.17. For the variant P4Q, the abundance fitness is -0.553 ± 0.13. Under P4A stands -0.496 ± 0.11; under A2T, 0.184 ± 0.069. In the case of A2Q, the abundance fitness came to 0.007 ± 0.097. As for A2F, the abundance fitness amounted to 0.144 ± 0.12. Consider A2K, for which the abundance fitness was determined as 0.169 ± 0.069. Regarding A2W, the abundance fitness was -0.146 ± 0.061.

Consider A2L, for which the abundance fitness was -0.007 ± 0.045. A2E: the abundance fitness was 0.196 ± 0.083. As to A2C, the abundance fitness came out at 0.031 ± 0.061. Regarding A2Y, the abundance fitness came out at 0.389 ± 0.14. Consider A2N, for which the abundance fitness came out at 0.147 ± 0.12. Consider A2H, for which the abundance fitness was -0.256 ± 0.13. With A2G, the abundance fitness was determined as 0.133 ± 0.043. Consider A2M, for which the abundance fitness came to 0.104 ± 0.085. Regarding A2D, the abundance fitness turned out to be 0.153 ± 0.095. As to A2R, the abundance fitness was determined as 0.053 ± 0.039.

Regarding A2V, the abundance fitness was 0.128 ± 0.055.

The record behind these values is the Human Domainome abundance scans (Beltran et al. 2025).
